Publication PMC9452303

Legend:
[1] = target: CsuA/B, major subunit of the Csu pilus rod (wild type, in Csu pili) (Acinetobacter baumannii); assay: optical tweezers force spectroscopy; single pili on E. coli cells mounted on a bead, polystyrene probe bead; extension at a constant speed of 50 nm/s; force of region II (clinch opening)
[2] = target: FimD NTD (Escherichia coli) (UniProt P30130); conditions: cited from earlier work
FimD (Escherichia coli) = FimD (Escherichia coli) (UniProt P30130); conditions: cited from earlier work
[3] = target: CsuA/B Val2Ala (in Csu pili) (Acinetobacter baumannii); assay: optical tweezers force spectroscopy; single pili on E. coli cells mounted on a bead, polystyrene probe bead; extension at a constant speed of 50 nm/s; force of region II (clinch opening)
[4] = target: CsuA/B (wild type, co-expressed with the CsuC chaperone) (Acinetobacter baumannii); assay: pull-down
[5] = target: CsuA/B Arg104Cys (in Csu pili) (Acinetobacter baumannii); assay: optical tweezers force spectroscopy; single pili on E. coli cells mounted on a bead, polystyrene probe bead; extension at a constant speed of 50 nm/s; force of region II (clinch opening)

In the case of “CsuA/B, major subunit of the Csu pilus rod (wild type, in Csu pili) (natural protein)”, the clinch opening force [1] is reported as 23 pN.
In the case of FimC-FimH complex (from UniProt P31697), the Kd [2] is given as 960 nM and the Kd (FimD (Escherichia coli)) is given as 12.5 nM.
For “CsuA/B Val2Ala (in Csu pili) (natural protein)”, the clinch opening force [3] was 15 pN.
In the case of “CsuA/B (wild type, co-expressed with the CsuC chaperone) (natural protein)”, the stoichiometry N [4] is reported as 1 to 8.
Substance “CsuA/B Arg104Cys (in Csu pili) (natural protein)” has a clinch opening force [5] of 19.8 pN.
